The text below walks through data of patent US20230057987A1 (published 2023).

Assay [1] concerns the target CT45-IP antigenic peptide (…) in complex with HLA-A*02 presented on cells (peptide-loaded T2 cells; NCIH1703 and A375 tumor cells) (human). The assay can be described thus: cell-based or functional assay.
In assay [2] the target is T1, similar peptide SP-05-0002, source protein not stated peptide on HLA-A*02:01 (human).
T1 peptide: KIFSGLLKV
In words: killing.

Assay [3] addresses T2, similar peptide SP-05-0003, source protein not stated peptide on HLA-A*02:01 (human).
T2 peptide: KVTEMLVNV
In words: killing.

The target of assay [4] is T3, similar peptide SP-05-0004, source protein not stated peptide on HLA-A*02:01 (human).
T3 peptide: KIWEWLVGV
The assay can be described thus: killing.

The target of assay [5] is T4, similar peptide SP-05-0005, source protein not stated peptide on HLA-A*02:01 (human).
T4 peptide: KIEEFLEAV
The assay can be described thus: killing.

For assay [6], the target named is T5, similar peptide SP-05-0006, source protein not stated peptide on HLA-A*02:01 (human).
T5 peptide: KIAELLENV
In words: killing.

In assay [7] the target is T6, similar peptide SP-05-0007, source protein not stated peptide on HLA-A*02:01 (human).
T6 peptide: KIFPALCTV
The assay can be described thus: killing.

The target in assay [8] is T7, similar peptide SP-05-0008, source protein not stated peptide on HLA-A*02:01 (human).
T7 peptide: KILDELEKV
The assay can be described thus: killing.

The target of assay [9] is T8, similar peptide SP-05-0009, source protein not stated peptide on HLA-A*02:01 (human).
T8 peptide: KIIDLLPKV
In words: killing.

The target in assay [10] is T9, similar peptide SP-05-0010, source protein not stated peptide on HLA-A*02:01 (human).
T9 peptide: RIFETVNSV
In words: killing.

Assay [11] has as its target T10, CT45-IP alanine variant, position 1 peptide on HLA-A*02:01 (human).
T10 peptide: AIFEMLEGV
In words: killing.

In assay [12] the target is T11, CT45-IP alanine variant, position 8 peptide on HLA-A*02:01 (human).
T11 peptide: KIFEMLEAV
In words: killing.

Assay [13] has as its target T12, similar peptide SP-05-0001, source protein not stated peptide on HLA-A*02:01 (human).
T12 peptide: HIMEHLEGV
The assay can be described thus: killing.

Assay [14] addresses CT45-IP-HLA-A*02 dextramer (human). The assay can be described thus: flow cytometry, dextramer staining of TCR-mRNA electroporated T cells, gated on CD3+. For orientation: Flow cytometry measures light scatter and fluorescence of single cells or particles in a stream.
The target in assay [15] is T13, CT45 (CT45A1, A2, A3, A5 to A10); CT45-IP peptide on HLA-A*02:01 (human).
T13 peptide: KIFEMLEGV
The assay can be described thus: luciferase release, 24 h, 1:1; CD8+ T cells with TCR mRNA, T2 cells with titrated peptide; full-length, on cells.

For assay [16], the target named is T13, CT45 (CT45A1, A2, A3, A5 to A10); …. In words: CT45-IP-HLA-A*02 dextramer on T cells with TCR mRNA; TCR found by tetramer sorting; full-length, on cells.
For assay [17], the target named is T14, CT45-IP alanine variant, position 5 peptide on HLA-A*02:01 (human).
T14 peptide: KIFEALEGV
In words: killing.

B1: TCR-2 (TCR, V domains shown)
Valpha: QKITQTQPGMFVQEKEAVTLDCTYDTSDQSYGLFWYKQPSSGEMIFLIYQGSYDEQNATEGRYSLNFQKARKSANLVISASQLGDSAMYFCAMREGSDAGGTSYGKLTFGQGTILTVHP
Vbeta: GVIQSPRHLIKEKRETATLKCYPIPRHDTVYWYQQGPGQDPQFLISFYEKMQSDKGSIPDRFSAQQFSDYHSELNMSSLELGDSALYFCASSPSTGRLNTEAFFGQGTRLTVV
As for B1, the EC50, half maximal killing capacity (functional avidity; CT45-IP peptide titration on T2 cells, luciferase release) in assay [1] turned out to be 4.69 nM. For the same molecule, the binding result in assay [2], in assay [3], in assay [4], in [5], in [6] and in assay [7] was “no recognition” throughout. Besides, the binding result in assay [8] is given as “no recognition”; in assay [9] it was “no recognition”; in assay [10], “no recognition”; in assay [11], “recognises”; in assay [12], “recognises”; in assay [13] it was “no recognition”. The same molecule had a surface expression, % positive events by CT45-IP-HLA-A2*02 dextramer staining in [14] of 39.1%. In assay [15], the EC50 of peptide was determined as 4.69 nM. Besides, in assay [16], the dextramer-positive events was 39.1%.

B2: TCR-9 (TCR, V domains shown)
Valpha: EDVEQSLFLSVREGDSSVINCTYTDSSSTYLYWYKQEPGAGLQLLTYIFSNMDMKQDQRLTVLLNKKDKHLSLRIADTQTGDSAIYFCAEKETAGNKLTFGGGTRVLVKP
Vbeta: EPEVTQTPSHQVTQMGQEVILRCVPISNHLYFYWYRQILGQKVEFLVSFYNNEISEKSEIFDDQFSVERPDGSNFTLKIRSTKLEDSAMYFCASTVQSPRTNEQFFGPGTRLTVL
Consider B2, for which the EC50, half maximal killing capacity (functional avidity; CT45-IP peptide titration on T2 cells, luciferase release) in assay [1] was 0.15 nM. Further, the binding result in assay [2], in [3], in assay [5], in assay [6], in assay [7] and in assay [8] was “no recognition” in each case. In addition, the binding result in assay [9], in [10] and in assay [13] was “no recognition” in each case. For the same molecule, the surface expression, % positive events by CT45-IP-HLA-A2*02 dextramer staining in assay [14] came to 44%. The molecule also gave an EC50 of peptide in assay [15] of 0.15 nM. Moreover, the dextramer-positive events in assay [16] amounted to 44%.

B3: TCR-15 (TCR, V domains shown)
Valpha: KQEVTQIPAALSVPEGENLVLNCSFTDSAIYNLQWFRQDPGKGLTSLLLIQSSQREQTSGRLNASLDKSSGRSTLYIAASQPGDSATYLCAVLLTGKLIFGQGTTLQVKP
Vbeta: GVTQTPRYLIKTRGQQVTLSCSPISGHRSVSWYQQTPGQGLQFLFEYFSETQRNKGNFPGRFSGRQFSNSRSEMNVSTLELGDSALYLCASSGGPGPSGEQYFGPGTRLTVT
Molecule B3 returned an EC50, half maximal killing capacity (functional avidity; CT45-IP peptide titration on T2 cells, luciferase release) in [1] of 18.6 nM. Besides, the binding result in assay [2], in assay [3], in assay [4], in [5], in [6] and in [7] was “no recognition” in each case. Besides, the binding result in assay [8] is listed as “no recognition”; in assay [9], “no recognition”; in [10] it was “no recognition”; in [12], “recognises”; in [13], “no recognition”. For the same molecule, the surface expression, % positive events by CT45-IP-HLA-A2*02 dextramer staining in assay [14] came to 22.6%. The molecule also registered an EC50 of peptide in assay [15] of 18.6 nM. Besides, the dextramer-positive events in assay [16] turned out to be 22.6%.

B4: TCR-3 (TCR, V domains shown)
Valpha: QKITQTQPGMFVQEKEAVTLDCTYDTSDQSYGLFWYKQPSSGEMIFLIYQGSYDEQNATEGRYSLNFQKARKSANLVISASQLGDSAMYFCGYSNYQLIWGAGTKLIIKP
Vbeta: QVTQNPRYLITVTGKKLTVTCSQNMNHEYMSWYRQDPGLGLRQIYYSMNVEVTDKGDVPEGYKVSRKEKRNFPLILESPSPNQTSLYFCASREGTGGYQPQHFGDGTRLSIL
As to B4, in [1], the EC50, half maximal killing capacity (functional avidity; CT45-IP peptide titration on T2 cells, luciferase release) worked out at 1.02 nM. The binding result in assay [2], in assay [3], in assay [4], in [5], in assay [6] and in assay [7] was “no recognition” each time. Further, the binding result in assay [8] is on record as “no recognition”; in [9], “no recognition”; in assay [10], “no recognition”; in assay [11], “recognises”; in [12], “recognises”; in assay [13], “no recognition”. Moreover, the surface expression, % positive events by CT45-IP-HLA-A2*02 dextramer staining in assay [14] came to 27.2%. In addition, the EC50 of peptide in assay [15] was 1.02 nM. For the same molecule, the dextramer-positive events in assay [16] stood at 27.2%.

B5: TCR-1 (TCR, V domains shown)
Valpha: QTVTQSQPEMSVQEAETVTLSCTYDTSENNYYLFWYKQPPSRQMILVIRQEAYKQQNATENRFSVNFQKAAKSFSLKISDSQLGDTAMYFCAPLGLVAGSARQLTFGSGTQLTVLP
Vbeta: GVSQDPRHKITKRGQNVTFRCDPISEHNRLYWYRQTLGQGPEFLTYFQNEAQLEKSRLLSDRFSAERPKGSFSTLEIQRTEQGDSAMYLCASSTDITSYEQYFGPGTRLTVT
In the case of B5, the EC50, half maximal killing capacity (functional avidity; CT45-IP peptide titration on T2 cells, luciferase release) in assay [1] was 7.78 nM. Further, the binding result in assay [2], in assay [3], in [4], in assay [5], in assay [6] and in assay [7] was “no recognition” each time. Moreover, the binding result in assay [8] is given as “no recognition”; in assay [9] it was “no recognition”; in assay [10] it was “no recognition”; in assay [12] it was “recognises”; in assay [13], “no recognition”. For the same molecule, in assay [14], the surface expression, % positive events by CT45-IP-HLA-A2*02 dextramer staining was 8.9%. In [15], this molecule had an EC50 of peptide of 7.78 nM. This molecule also had a dextramer-positive events in [16] of 8.9%.

B6: TCR-13 (TCR, V domains shown)
Valpha: QKITQTQPGMFVQEKEAVTLDCTYDTSDQSYGLFWYKQPSSGEMIFLIYQGSYDEQNATEGRYSLNFQKARKSANLVISASQLGDSAMYFCAMSDPIMDTGRRALTFGSGTRLQVQP
Vbeta: GITQSPKYLFRKEGQNVTLSCEQNLNHDAMYWYRQDPGQGLRLIYYSQIVNDFQKGDIAEGYSVSREKKESFPLTVTSAQKNPTAFYLCASKSRGPNLADTQYFGPGTRLTVL
As for B6, the EC50, half maximal killing capacity (functional avidity; CT45-IP peptide titration on T2 cells, luciferase release) in [1] amounted to 11.4 nM. In addition, the binding result in [2], in assay [3], in [4], in [5], in [6] and in assay [7] was “no recognition” each time. Also, the binding result was “no recognition” in assay [8]; “no recognition” in assay [9]; “no recognition” in assay [10]; “recognises” in [17]; “recognises” in assay [12]; “no recognition” in [13]. The molecule further yielded a surface expression, % positive events by CT45-IP-HLA-A2*02 dextramer staining in assay [14] of 53.1%. This molecule also came in with an EC50 of peptide in assay [15] of 11.4 nM. In assay [16], this molecule gave a dextramer-positive events of 53.1%.
